Measured values from IntAct's records for PubMed 23917616.

B1: Myotubularin (Homo sapiens), Q13496 (parent)
chain: MASASTSKYNSHSLENESIKRTSRDGVNRDLTEAVPRLPGETLITDKEVIYICPFNGPIKGRVYITNYRLYLRSLETDSSLILDVPLGVISRIEKMGGATSRGENSYGLDITCKDMRNLRFALKQEGHSRRDMFEILTRYAFPLAHSLPLFAFLNEEKFNVDGWTVYNPVEEYRRQGLPNHHWRITFINKCYELCDTYPALLVVPYRASDDDLRRVATFRSRNRIPVLSWIHPENKTVIVRCSQPLVGMSGKRNKDDEKYLDVIRETNKQISKLTIYDARPSVNAVANKATGGGYESDDAYHNAELFFLDIHNIHVMRESLKKVKDIVYPNVEESHWLSSLESTHWLEHIKLVLTGAIQVADKVSSGKSSVLVHCSDGWDRTAQLTSLAMLMLDSFYRSIEGFEILVQKEWISFGHKFASRIGHGDKNHTDADRSPIFLQFIDCVWQMSKQFPTAFEFNEQFLIIILDHLYSCRFGTFLFNCESARERQKVTERTVSLWSLINSNKEKFKNPFYTKEINRVLYPVASMRHLELWVNYYIRWNPRIKQQQPNPVEQRYMELLALRDEYIKRLEELQLANSAKLSDPPTSPSSPSQMMPHVQTHF
partner: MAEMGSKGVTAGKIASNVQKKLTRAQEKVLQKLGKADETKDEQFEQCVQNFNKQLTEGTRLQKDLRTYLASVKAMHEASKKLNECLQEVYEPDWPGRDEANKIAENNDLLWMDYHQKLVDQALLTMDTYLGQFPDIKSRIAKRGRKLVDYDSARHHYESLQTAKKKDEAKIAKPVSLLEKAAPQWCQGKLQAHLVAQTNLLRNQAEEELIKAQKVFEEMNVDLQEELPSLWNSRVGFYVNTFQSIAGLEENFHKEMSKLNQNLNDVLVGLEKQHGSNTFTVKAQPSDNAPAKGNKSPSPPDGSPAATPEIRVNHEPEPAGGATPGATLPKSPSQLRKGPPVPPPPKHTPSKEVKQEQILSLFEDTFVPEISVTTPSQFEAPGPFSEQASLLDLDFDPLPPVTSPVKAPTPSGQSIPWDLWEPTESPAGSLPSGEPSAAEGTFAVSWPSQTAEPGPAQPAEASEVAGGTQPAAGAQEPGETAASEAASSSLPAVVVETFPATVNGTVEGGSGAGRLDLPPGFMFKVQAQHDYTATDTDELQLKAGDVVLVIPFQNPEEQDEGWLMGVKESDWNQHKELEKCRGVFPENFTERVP

Variants of: B1
Details: with bin1_human BIN1, O00499

Row | Variant | effect of a mutation on the interaction
1 | C375S | disrupting interaction
